Experimental data: publication PMC7718258, “A substrate binding model for the KEOPS tRNA modifying complex”

T1: mjCgi121;mjBud32;mjKae1 (Methanocaldococcus …, UniProt Q57646;Q58530;Q58530 1-145;333-535;1-332, ||)
T1 sequence 1: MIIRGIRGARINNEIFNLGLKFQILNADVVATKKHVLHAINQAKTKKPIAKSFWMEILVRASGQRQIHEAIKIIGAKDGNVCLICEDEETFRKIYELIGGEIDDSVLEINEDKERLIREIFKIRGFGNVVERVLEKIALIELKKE
T1 sequence 2: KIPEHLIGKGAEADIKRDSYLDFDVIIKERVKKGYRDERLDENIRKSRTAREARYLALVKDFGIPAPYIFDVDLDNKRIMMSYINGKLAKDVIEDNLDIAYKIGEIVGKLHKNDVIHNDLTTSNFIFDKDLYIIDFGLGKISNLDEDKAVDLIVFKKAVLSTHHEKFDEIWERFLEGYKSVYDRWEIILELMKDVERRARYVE
T1 sequence 3: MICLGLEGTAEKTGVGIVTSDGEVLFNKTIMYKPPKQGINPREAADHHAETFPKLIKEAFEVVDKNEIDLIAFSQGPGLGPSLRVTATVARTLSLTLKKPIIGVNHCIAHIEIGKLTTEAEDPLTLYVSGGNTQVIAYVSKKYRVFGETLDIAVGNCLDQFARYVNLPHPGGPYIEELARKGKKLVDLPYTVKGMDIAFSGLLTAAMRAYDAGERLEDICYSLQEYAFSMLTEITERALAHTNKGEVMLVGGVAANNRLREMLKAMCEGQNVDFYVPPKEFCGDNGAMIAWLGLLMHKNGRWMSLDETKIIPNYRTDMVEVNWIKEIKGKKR

T2: mjCgi121 (Methanocaldococcus jannaschii, UniProt Q57646 1-145)
T2 sequence: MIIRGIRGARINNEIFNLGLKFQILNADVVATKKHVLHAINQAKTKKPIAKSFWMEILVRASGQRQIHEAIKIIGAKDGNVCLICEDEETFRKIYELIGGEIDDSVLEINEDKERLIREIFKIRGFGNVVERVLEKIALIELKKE

T3: mjCgi121;mjBud32 (Methanocaldococcus …, UniProt Q57646;Q58530 1-145;333-535, |)
T3 sequence 1: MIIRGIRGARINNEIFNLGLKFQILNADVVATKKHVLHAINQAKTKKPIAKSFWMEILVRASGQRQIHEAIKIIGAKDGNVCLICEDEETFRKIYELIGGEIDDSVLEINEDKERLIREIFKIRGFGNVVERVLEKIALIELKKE
T3 sequence 2: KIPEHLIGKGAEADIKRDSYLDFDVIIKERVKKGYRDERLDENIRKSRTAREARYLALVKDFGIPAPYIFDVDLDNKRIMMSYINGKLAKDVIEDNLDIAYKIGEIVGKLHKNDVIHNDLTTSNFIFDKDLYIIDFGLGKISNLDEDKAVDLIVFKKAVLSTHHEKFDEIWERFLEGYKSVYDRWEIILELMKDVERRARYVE

T4: mjKae1 (Methanocaldococcus jannaschii, UniProt Q58530 1-332)
T4 sequence: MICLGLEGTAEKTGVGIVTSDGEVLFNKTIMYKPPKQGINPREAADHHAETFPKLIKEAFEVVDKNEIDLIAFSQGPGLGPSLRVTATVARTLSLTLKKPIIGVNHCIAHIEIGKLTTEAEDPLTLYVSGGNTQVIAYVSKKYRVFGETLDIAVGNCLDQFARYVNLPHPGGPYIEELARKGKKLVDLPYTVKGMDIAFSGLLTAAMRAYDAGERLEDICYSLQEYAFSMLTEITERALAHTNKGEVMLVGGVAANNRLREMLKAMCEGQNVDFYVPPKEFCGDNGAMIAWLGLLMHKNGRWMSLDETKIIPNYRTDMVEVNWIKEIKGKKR

T5: mjBud32 (Methanocaldococcus jannaschii, UniProt Q58530 333-535)
T5 sequence: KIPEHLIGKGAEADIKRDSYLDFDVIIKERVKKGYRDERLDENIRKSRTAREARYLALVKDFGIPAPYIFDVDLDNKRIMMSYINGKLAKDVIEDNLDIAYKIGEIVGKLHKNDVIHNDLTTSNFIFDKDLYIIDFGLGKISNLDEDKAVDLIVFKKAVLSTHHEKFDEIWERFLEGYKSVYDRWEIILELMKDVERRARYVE


How the values were obtained:
[1] = biological target: TPRKB;PRPK (Homo sapiens;Homo sapiens, UniProt Q9Y3C4;Q96S44 1-175;1-253, |); assay: fluorescence polarization; 20 mM HEPES pH 7.5, 100 mM NaCl, 2 mM DTT; filter binding 50 nM 32P-tRNA, 1 h, room temperature; FP 50 nM 647-CCA; NMR 25 C with 10% D2O; conditions: protein: recombinant;recombinant; tags: GST removed by TEV;GST-His6 removed by TEV; copies: 1;1; label: 5' Alexa-647; single strand
[2] = biological target: T1, mjCgi121;mjBud32;mjKae1; assay: as above; conditions: protein: recombinant;recombinant;recombinant; tags: GST removed by TEV;His6 removed by TEV;GST removed by TEV; copies: 1;1;1; label: 5' Alexa-647; single strand
[3] = biological target: TPRKB (Homo sapiens, UniProt Q9Y3C4 1-175); assay: as above; conditions: protein: recombinant; tags: GST removed by TEV; label: 5' Alexa-647; single strand
[4] = biological target: T2, mjCgi121; assay: as above; conditions: protein: recombinant; tags: GST removed by TEV; label: 5' Alexa-647; single strand
[5] = biological target: T3, mjCgi121;mjBud32; assay: as above; conditions: protein: recombinant;recombinant; tags: GST removed by TEV;His6 removed by TEV; copies: 1;1; label: 5' Alexa-647; single strand
[6] = biological target: T4, mjKae1; assay: as above; conditions: protein: recombinant; tags: GST removed by TEV; label: 5' Alexa-647; single strand
[7] = biological target: scQri7 (Saccharomyces cerevisiae, UniProt P43122 30-407); assay: as above; conditions: protein: recombinant; tags: His6 removed by TEV; label: 5' Alexa-647; single strand
Chain of scQri7 (P43122 30-407): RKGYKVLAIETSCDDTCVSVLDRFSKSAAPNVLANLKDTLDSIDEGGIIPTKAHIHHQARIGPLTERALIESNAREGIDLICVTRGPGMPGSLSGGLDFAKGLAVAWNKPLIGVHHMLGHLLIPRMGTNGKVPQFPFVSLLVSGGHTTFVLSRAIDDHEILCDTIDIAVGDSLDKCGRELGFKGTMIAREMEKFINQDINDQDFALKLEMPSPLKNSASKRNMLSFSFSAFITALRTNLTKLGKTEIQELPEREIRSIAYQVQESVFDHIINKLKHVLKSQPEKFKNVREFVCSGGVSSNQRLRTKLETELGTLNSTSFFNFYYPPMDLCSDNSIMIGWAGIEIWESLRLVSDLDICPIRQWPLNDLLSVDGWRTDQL

[8] = biological target: T5, mjBud32; assay: as above; conditions: protein: recombinant; tags: His6 removed by TEV; label: 5' Alexa-647; single strand
[9] = biological target: TPRKB;PRPK;OSGEP;LAGE3 (Homo sapiens;Homo sapiens;Homo …, UniProt Q9Y3C4;Q96S44;Q9NPF4;Q14657 1-175;1-253;1-335;1-143, |||); assay: as above; conditions: protein: recombinant;recombinant;recombinant;recombinant; tags: GST removed by TEV;GST-His6 removed by TEV;;His; copies: 1;1;1;1; label: 5' Alexa-647; single strand
[10] = biological target: T2, mjCgi121; assay: competition; displacement of 32P-tRNA, filter binding, 5 uM protein; 20 mM HEPES pH 7.5, 100 mM NaCl, 2 mM DTT; filter binding 50 nM 32P-tRNA, 1 h, room temperature; FP 50 nM 647-CCA; NMR 25 C with 10% D2O; conditions: protein: recombinant; tags: GST removed by TEV; single strand

Row | Binder | Kd [1] [nM] | Kd [2] [nM] | Kd [3] [µM] | Kd [4] [nM] | Kd [5] [nM] | binding result [6] | binding result [7] | binding result [8] | Kd [9] [µM] | binding result [10]
1 | CCGCCA (ssRNA) [647-CCA] | 450 | 153 | 28 | 730 | 229 | no binding | no binding | no binding | 4.3 | –
2 | CCCGCCA (ssRNA) [CCA-oligo] | – | – | – | – | – | – | – | – | – | binds
3 | ACCGCCC (ssRNA) [inverted oligo] | – | – | – | – | – | – | – | – | – | no binding
